Data as given in the nanobody polyreactivity screen of Harvey et al. (2022).

Assay: yeast display, Sf9 membrane polyspecificity reagent, FACS + sequencing; frameworks hold sequencing errors
Summary of the method: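 In a synthetic yeast display library (Saccharomyces cerevisiae BJ5465), nanobody expression was induced with galactose for 36–48 hours. FACS gates were set low and high (top ~1%) using anti-HA fluorescence for expression and streptavidin fluorescence for binding of the Sf9 membrane reagent. Each polyreactivity label is drawn from the gate of origin.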

Sequence | polyreactivity (PSR sort gate)
QVQLVESGGGLLQAGGSLRLSCAASGSTFDTYDMGWYRQAPGKERELVAARNSGGDTNYADSVKGRFTISRDNAKNTVYLQMNSLKPEDTAVYYCAVVTYSYPNWYGYWGPGTQVTVSS | high polyreactivity
QVQLVESGGGLVQAGGSLRLSCAASGNILSPYTMGWYRQAPGKERELVAGISRSGGTTYYADSVKGRFTLSRDNAKTTVYLQINSLKTEDTAVYYCASGLIYGYSGYDSWGQGTQVTVSS | low polyreactivity
QVQLVESGGGLVQAGGSLRLSCAASGSTFYKYAMGWYRQAPGKERELVASISRSGGSTSYADSVKGRFTISRDNAKNTVYLQMNSLKPEDTAVYYCAATWRQHPGSMGYWGQGTQVTVSS | high polyreactivity
QVQLVESGGGLVQAGGSLRLSCAASGSIFTNNAMGWYRHAPGKERELVAAISRGGSTYYADSVKGRFTISRDIAKNTDFIQMNSLIPEDTAVYYCNARRYRHDGYWGQGTQVTVSS | high polyreactivity
QVQLVESGRGLVQAGGSLRLSCAASGSIFGGYGMGWYRQAPGKERELVAAITSGSSTYYADSVKGRFTISRDNAKNTVYLQMNSLKPEDTAVYYCAARPYPHSAYEGDYWGRGTQVTVSS | low polyreactivity
QVHLVESGGGLVQAGGSLRLTCAASGFTFQGYAMGRYRQAPGKERELVAAISIGGVRTYYADSVKGRFTISRDNAKNTVYLQMNSLKPEDTAVYYCAKDGSKLSSYNYWGQGTQVTVSS | high polyreactivity
QVQLVESGGCLVQAGGSLRLSCAASGSIFGAYVMGWYRQAPGKERELVAAITRRGGSTYYADSVKGRFTISRDNAKNTVYLQMNSLKPEDTAVYYCAARRGAGDGYWGQGTQVTVSS | high polyreactivity
QVQLVESGGGLVQAGGSLRLSCAASGSIFYDYAMGWYRQAPGKERELVATISSGGSTNYADSVKGRFTISRDNAKNTVYLQMNSLKPEDTAVYYCNVDGRRYPHEFDYWGQGTQVTVSS | low polyreactivity
QVQLVESGGGLVQAGGSLRLSCAASGRISLHNTIGWYRQAPGKERELVAAINYSGGSTYYADTVKGRFTISRDNAKNTVYLQMNSLKPEDTEVYYCAADFYQSHFYRPRYDYWGQGTQVTVSS | low polyreactivity
QVQLVESGGGLVQAGGRLRLTCAASASIFHYNSMGWYRQATGKQRELVAAITSGGSTYADSVKGRFTISRDNAKNTVYLQMNSLKPEDTAVYYCNADSVGPRGDLGYWGQGTQVTVSS | low polyreactivity
QVQLVESGGGLVQAGGSLRLSCAASGSTFYVYDMGWYRQAPGKERELVAAITRRGGSTYYADSVKGRFTISRDNAKNTVYLQMNSLKPVDTAVYYCAARTAYYPTHRYYWGQGTQVTVSS | high polyreactivity
QVQLVESGGGLVQAGGSLRLSCAASGFTIKWYTMGWYRPAPGKERELVAGISRRGGSTYYADSVKGRFTISRDNAKNTVYLEMNSLKPEDTAVYYCNVYSRTHYQTYTDDYWGQCTQVTVSS | high polyreactivity
QVQLVESGGGLVQAGGSLRLSCAASGFTFGWYTMGWYRQAPGKEREFVAAISWSGTSTYYADSVKGRFTISRDNAKNTVYLQMNSLKAEDTAVYYCNKLRRGDMEYWGQGTQVTVSS | high polyreactivity
QVQLVESGGGLVQAGGSLRLSCAASGRIFRVYAMGWYSQAPGKERELVASISSGGSTNYADSVKGRFTISRDNANNTVYLQMNSLKPEDTAVYYCAADRSGSFYKLDYWGQGTHVTVSS | low polyreactivity
QVQLVESGGGLVQAGGSHRLSCAASGSTFTYNAMGWYRQAPGKERELVASISSGTTTYYADSVKGRFTISRDNAKNTVYLQMNSLIPEDTAVYDCAVDSWSRVQGWLAHNYDYWGQGTQVTVSS | low polyreactivity
QVQLVESGGGLVQAGGSLRLSCAASGSIFTYYDMGWYRQAPGKEREWVAGISRRGSTYYADSVKGRFTISRDNAKNTVYLQMNSLKPEDTAVYYCAADPWVGTLYPRVGYWGQGTQVTVSS | low polyreactivity
QVQLVESGGGLVQAGGSLRLSCAASGRTLGGYAMGWYRQAPGKERELVASITARGGSTYYADSVKGRFTISRDNAKNTVYLQMNSLKPEDTAVYYCATYFARGYNSWGQGTQVTVSS | high polyreactivity
